Test results: PMC3075490

Biological target: T1, [4Fe-4S]-NsrR-His6 (anaerobically purified) (Bacillus subtilis (JH642 background), UniProt O07573 1-146)
T1 sequence: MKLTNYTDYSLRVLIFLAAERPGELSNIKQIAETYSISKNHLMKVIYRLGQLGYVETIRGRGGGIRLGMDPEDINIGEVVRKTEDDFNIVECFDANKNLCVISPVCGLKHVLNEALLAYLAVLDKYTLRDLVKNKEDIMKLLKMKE
Experiment: EMSA

GCATAACATGTATCTTAAATATTCCTTTCG (ssDNA) [nasD coding strand 30-mer oMN09-489]
binding result: no binding
